Measurements as given in patent US7090834B1, “Vascular endothelial cell growth factor variants and uses thereof” (Genentech, Inc., priority 1999, dated 2006).
Numbering of substitutions follows the chain as printed. Where two headings read alike, the source gives them in different places.

B1: native VEGF (8-109) (ligand, human, UniProt P15692 214-315, looked up)
chain: GQNHHEVVKFMDVYQRSYCHPIETLVDIFQEYPDEIEYIFKPSCVPLMRCGGCCNDEGLECVPTEESNITMQIMRIKPHQGQHIGEMSFLQHNKCECRPKKD
notes: Homodimer
B2: LK-VRB-8s* (ligand)
chain: APMAEGGGQNHHEVVKFMDVLQRSYCHPIETLVDIFQEYPDEIEYIFKPSCVPLMRCGGCCNSEMRECVPTEESNITMQIMRIKPHQGQHIGEMSFLQHNKCECRPKKD
B3: LK-VRB-7s* (ligand, human, UniProt P15692-4 27-135, looked up)
chain: B2 chain with M18E, L21Y
B4: LK-VRB-3s (ligand, human, UniProt P15692-4 27-135, looked up)
chain: B2 chain with F17I, M18E, L21F, Q22K, Y25S, S63D, M65G, R66L
B5: LK-VRB-9s (ligand, human, UniProt P15692-4 27-135, looked up)
chain: B2 chain with L21Y, Q22R
B6: PlGF: VEGF-related molecule that binds Flt-1 but not KDR (R & D Systems) (protein)
chain: AVPPQQWALSAGNGSSEVEVVPFQEVWGRSYCRALERLVDVVSEYPSEVEHMFSPSCVSLLRCTGCCGDENLHCVPVETANVTMQLLKIRSGDRPSYVELTFSQHVRCECRPLREKMKPERCGDAVPRR

Tests used:
[1] = test system: HUVEC cells; assay: HUVEC migration, modified Boyden chamber assay; type: cell-based, human; conditions: highest concentration of inhibitor, migration in response to native VEGF, 4 hours, FIG. 14B
Experimental: One of the central aspects of VEGF action on endothelial cells is its ability to act as a chemoattractant and stimulate the migration of endothelial cells. HUVEC cell migration was analyzed in a modified Boyden chamber assay as follows.
Falcon 8.0 micron filter inserts (Falcon 3097) were coated with type 1 collagen (VITROGEN, COHESION). HUVEC (obtained from Cell Systems, <passage 8) were grown in Cell Systems complete media (4ZO-500) with 10% FCS. Cells were trypsinized and transferred to EBM (Endothelial basal media, Clonetics) with 0.1% BSA for the assay. Cells were plated at 5×10^4 per upper chamber. […] The assay was routinely an 18 hour assay at 37° C. For the LY294002 inhibitor experiments, cells were allowed to adhere for 30 minutes prior to addition of the inhibitor. 20 minutes after inhibitor addition, VEGF was added to the bottom well and the assay was allowed to proceed for only 4 hours to avoid the occurrence of apoptosis associated with the treatment of these primary cells with LY294002 (purchased from Biomol).
Cells were removed from the upper side of the membrane by scraping with a polyurethane swab and then the remaining cells on the bottom side of the membrane were fixed with methanol. Cells were stained with Yo-Pro Iodide nuclear stain (Molecular Probes) and counted under low power fluorescence using an Image-Pro cell recognition program.

[2] = molecular target: Flt-1 receptor; assay: RIA assay, binding to FLT-1 receptor
Experimental: Various assays were conducted to examine the properties and biological activities of the I43A/I46A/Q79A/I83A Flt-sel variant. For example, quantitative binding measurements were carried out using a soluble radio-immuno receptor-binding assay (RIA), as described in Example 6 above.
Target sequence in this assay (P17948 27-331 limits assumed): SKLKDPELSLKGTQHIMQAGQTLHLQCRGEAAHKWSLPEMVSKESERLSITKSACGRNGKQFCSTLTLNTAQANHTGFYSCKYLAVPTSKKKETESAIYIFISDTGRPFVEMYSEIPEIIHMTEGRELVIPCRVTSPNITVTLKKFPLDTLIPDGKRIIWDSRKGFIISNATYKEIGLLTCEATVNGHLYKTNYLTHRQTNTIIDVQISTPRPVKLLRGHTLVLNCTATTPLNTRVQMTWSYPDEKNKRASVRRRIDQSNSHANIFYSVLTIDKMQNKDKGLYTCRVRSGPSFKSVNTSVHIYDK

[3] = test system: PLC-gamma in HUVEC cells; assay: PLC-gamma tyrosine phosphorylation after immunoprecipitation; type: cell-based, human; conditions: 20 ng/ml, 5 minutes, FIG. 13A
Experimental: In order to determine which VEGF receptor(s) are involved in PLC-gamma activation in primary endothelial cells, HUVEC cells were treated with native VEGF or VEGF receptor-selective variants and PLC-gamma phosphorylation was assessed after immunoprecipitation.
Passage 4–7 HUVEC cells (Cell Systems, Kirkland, Wash.) were grown in Cell System's complete medium (AZ0-500) with 10% fetal calf serum and growth factors on gelatin-coated dishes and made quiescent by 14 hour starvation in 0.2% serum. […] The cells were then lysed in 0.5–1 ml RIPA buffer containing 0.1 mM sodium orthovanadate, 5 mM para-nitrophenylphosphate, 10 mM sodium fluoride, 0.5 micromolar okadaic acid and a protease inhibitor cocktail (Roche MB 1836145). PLC-gamma was then immunoprecipitated from whole cell lysates using monoclonal antibodies (Upstate Biotechnology) and analyzed for tyrosine phosphorylation (FIG. 13A) or lysates were immunoprecipitated with monoclonal antibodies against p85 PI 3′-kinase (purchased from Transduction Labs (P13020) and Neomarkers (MS424-P)) and tested for phosphotyrosine using phosphotyrosine antibodies PY20 or E120H (Transduction Labs) (FIG. 13B). Immunoprecipitation was conducted as follows. Protein A/G beads (Pierce) were blocked for nonspecific protein binding in 50 mM HEPES pH 7.2, 0.1% TX-100, 150 mM NaCl and 1 mg/ml ovalbumin for 30 minutes. Antibodies were precoupled in the same buffer for 1 hour at 4° C. with head over end rotation and beads were washed 3 times in lysis buffer. Beads were added to the lysates and rotated overnight. Beads were washed sequentially in 50 mM Tris pH 7.6, 150 mM NaCl, 1% TX-100, 1 mM CaCl2; 50 mM Tris pH 7.6, 500 mM NaCl, 0.1% TX-100, 1 mM CaCl2 and 50 mM Tris pH 7.6, 150 mM NaCl, 0.05% TX-100, 1 mM CaCl2. Beads were then resuspended in 2× sample buffer and boiled. Supernatants were applied directly to 4–12% Tris-Glycine gradient gels (Novex).

[4] = molecular target: KDR receptor on HUVEC cells (human, UniProt P35968 20-1356); assay: cell-based or functional assay
Sequence of KDR receptor on HUVEC cells (P35968 20-1356): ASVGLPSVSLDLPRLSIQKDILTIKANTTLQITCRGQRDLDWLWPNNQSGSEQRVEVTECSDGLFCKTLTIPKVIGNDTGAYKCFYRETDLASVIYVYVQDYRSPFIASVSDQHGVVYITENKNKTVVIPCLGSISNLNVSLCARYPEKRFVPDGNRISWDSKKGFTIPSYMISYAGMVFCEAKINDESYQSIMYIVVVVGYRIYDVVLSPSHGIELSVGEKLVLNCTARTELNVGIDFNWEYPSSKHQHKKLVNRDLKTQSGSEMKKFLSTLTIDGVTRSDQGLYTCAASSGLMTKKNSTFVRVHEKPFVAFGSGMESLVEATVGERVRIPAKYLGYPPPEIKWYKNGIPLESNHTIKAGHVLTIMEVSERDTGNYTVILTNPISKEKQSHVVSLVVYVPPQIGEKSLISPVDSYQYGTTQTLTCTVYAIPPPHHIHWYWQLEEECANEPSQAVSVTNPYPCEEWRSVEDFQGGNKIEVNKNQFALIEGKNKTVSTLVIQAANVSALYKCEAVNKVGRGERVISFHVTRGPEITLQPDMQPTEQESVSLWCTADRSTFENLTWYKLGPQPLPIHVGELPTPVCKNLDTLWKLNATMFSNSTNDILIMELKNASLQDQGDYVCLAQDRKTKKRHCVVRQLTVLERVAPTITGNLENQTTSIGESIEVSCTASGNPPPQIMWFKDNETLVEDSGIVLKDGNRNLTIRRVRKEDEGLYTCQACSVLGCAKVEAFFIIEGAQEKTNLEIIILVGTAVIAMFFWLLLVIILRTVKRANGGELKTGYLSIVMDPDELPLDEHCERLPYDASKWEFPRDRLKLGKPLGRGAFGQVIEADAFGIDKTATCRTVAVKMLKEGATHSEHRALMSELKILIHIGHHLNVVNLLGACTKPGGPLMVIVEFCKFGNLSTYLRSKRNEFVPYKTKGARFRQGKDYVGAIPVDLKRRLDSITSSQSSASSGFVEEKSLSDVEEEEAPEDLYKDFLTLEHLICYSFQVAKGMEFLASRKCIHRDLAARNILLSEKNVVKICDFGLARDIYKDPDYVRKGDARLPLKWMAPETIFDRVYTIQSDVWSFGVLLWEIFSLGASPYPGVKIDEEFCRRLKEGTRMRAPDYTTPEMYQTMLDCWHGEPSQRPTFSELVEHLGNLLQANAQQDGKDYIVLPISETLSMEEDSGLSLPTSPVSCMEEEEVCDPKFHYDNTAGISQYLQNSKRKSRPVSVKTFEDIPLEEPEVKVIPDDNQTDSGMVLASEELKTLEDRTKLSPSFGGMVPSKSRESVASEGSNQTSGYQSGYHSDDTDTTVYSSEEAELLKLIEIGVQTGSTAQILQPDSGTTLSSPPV

[5] = molecular target: T1, Flt-IgG (UniProt P17948 27-758, limits assumed); assay: competition ELISA vs biotinylated native VEGF for Flt-IgG
T1 construct: also called chimeric Flt-human Fc molecule; not shown: human IgG Fc
T1 sequence (P17948 27-758 limits assumed): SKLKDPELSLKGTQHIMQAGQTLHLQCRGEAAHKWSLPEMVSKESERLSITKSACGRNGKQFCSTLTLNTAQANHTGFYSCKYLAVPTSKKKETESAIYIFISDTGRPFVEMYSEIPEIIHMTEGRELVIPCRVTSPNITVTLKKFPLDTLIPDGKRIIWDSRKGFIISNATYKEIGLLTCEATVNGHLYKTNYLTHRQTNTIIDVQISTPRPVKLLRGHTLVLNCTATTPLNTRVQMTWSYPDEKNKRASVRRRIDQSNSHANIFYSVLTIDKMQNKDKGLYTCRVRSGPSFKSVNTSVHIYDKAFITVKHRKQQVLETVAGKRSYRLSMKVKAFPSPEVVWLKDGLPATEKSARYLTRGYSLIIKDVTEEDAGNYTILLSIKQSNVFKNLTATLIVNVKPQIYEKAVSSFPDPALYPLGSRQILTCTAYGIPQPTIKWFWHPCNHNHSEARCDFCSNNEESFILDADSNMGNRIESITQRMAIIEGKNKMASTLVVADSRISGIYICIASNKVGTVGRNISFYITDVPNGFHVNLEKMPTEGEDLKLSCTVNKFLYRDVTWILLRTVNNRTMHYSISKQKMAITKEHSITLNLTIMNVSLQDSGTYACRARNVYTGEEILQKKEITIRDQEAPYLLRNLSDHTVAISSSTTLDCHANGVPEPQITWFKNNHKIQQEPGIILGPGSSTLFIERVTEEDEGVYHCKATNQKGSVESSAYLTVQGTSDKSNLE
Experimental: (§1) Receptor binding assays were performed in 96-well immunoplates (Maxisorp, Nunc-Immunoplate, Nalge Nunc International, Rochester, N.Y.). Each well was coated with 100 μl of a solution containing 2 μg/ml of rabbit F(ab')2 to human IgG Fc (Jackson ImmunoResearch, West Grove, Pa.) in 50 mM carbonate buffer at pH 9.6 and incubated at 4° C. overnight. The supernatant was then discarded, the wells were washed three times in washing buffer (0.05% Tween 20 in PBS), and the plate was blocked (150 μl per well) with block buffer (0.5% BSA, 0.01% thimerosal in PBS) at room temperature for one hour. The supernatant was discarded, and the wells were washed.
(§2) The wells were filled with 100 μl of a solution containing Flt-IgG (a chimeric Flt-human Fc molecule) at 50 ng/ml in assay buffer (0.5% BSA, 0.05% Tween 20 in PBS). The wells were incubated at room temperature for 1 hour and then washed three times in wash buffer (0.05% Tween 20 in PBS).
(§3) Aliquots of the mixture (100 μl) were added to the precoated microtiter wells and the plate was incubated for 2 hours at room temperature. […] The wells were then incubated with 3, 3', 5,5'-tetramethyl benzidine (0.2 g/liter, Kirkegaard & Perry Laboratories, Gaithersburg, Md.) for about 10 minutes at room temperature. Absorbance was read at 450 nm on a Vmax plate reader (Molecular Devices, Menlo Park, Calif.).

[6] = molecular target: gD-KDR receptor on CHO cells (UniProt P35968 20-1356); assay: cell-based or functional assay
[7] = molecular target: KDR receptor (Homo sapiens, UniProt P35968); assay: KDR receptor binding ELISA (inhibition of biotinylated native VEGF (8–109) binding); conditions: second figure of the cell, variant midpoint concentration divided by that of native VEGF
Sequence of KDR receptor (P35968 20-327 limits assumed): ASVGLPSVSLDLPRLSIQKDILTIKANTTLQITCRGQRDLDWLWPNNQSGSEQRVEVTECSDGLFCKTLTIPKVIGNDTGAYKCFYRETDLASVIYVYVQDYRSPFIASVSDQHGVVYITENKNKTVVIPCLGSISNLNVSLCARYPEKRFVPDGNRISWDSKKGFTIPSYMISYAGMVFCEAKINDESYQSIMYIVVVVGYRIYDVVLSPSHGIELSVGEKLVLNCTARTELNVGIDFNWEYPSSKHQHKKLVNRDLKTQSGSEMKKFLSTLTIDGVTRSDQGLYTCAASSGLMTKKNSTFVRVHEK
Experimental: as §1, with “containing 8” for “containing 2”, “of a monoclonal antibody” for “of rabbit F(ab')2”, “to KDR known as MAKD5 (Genentech, South San Francisco, Calif.)” for “to human IgG Fc (Jackson ImmunoResearch, West Grove, Pa.)”, “was” for “was then”
as §3, with “of this” for “of the”, “for 1 hour” for “for 2 hours”, “3, 3′, 5,5′-tetramethyl” for “3, 3', 5,5'-tetramethyl”, “(0.2 gram/liter;” for “(0.2 g/liter,”
(§4) Titration curves were fit with a four-parameter nonlinear regression curve-fitting program (KaleidaGraph, Synergy Software, Reading, Pa.).

[8] = molecular target: Flt-1 receptor; assay: Flt-1 receptor binding ELISA (inhibition of biotinylated native VEGF binding to Flt-IgG); conditions: for Relative Binding Affinity, FLT-1 Receptor: concentration at midpoint absorbance: first figure of the cell, Flt-IgG; for Relative Binding Affinity, FLT-1 Receptor: ratio to native VEGF (8–109): second figure of the cell, fold less binding than native VEGF
Experimental: as §1, with “F(ab′)2” for “F(ab')2”
as §2
as §3, with “3′, 5,5′-tetramethyl” for “3', 5,5'-tetramethyl”
as §4
Target sequence in this assay (P17948 27-327 limits assumed): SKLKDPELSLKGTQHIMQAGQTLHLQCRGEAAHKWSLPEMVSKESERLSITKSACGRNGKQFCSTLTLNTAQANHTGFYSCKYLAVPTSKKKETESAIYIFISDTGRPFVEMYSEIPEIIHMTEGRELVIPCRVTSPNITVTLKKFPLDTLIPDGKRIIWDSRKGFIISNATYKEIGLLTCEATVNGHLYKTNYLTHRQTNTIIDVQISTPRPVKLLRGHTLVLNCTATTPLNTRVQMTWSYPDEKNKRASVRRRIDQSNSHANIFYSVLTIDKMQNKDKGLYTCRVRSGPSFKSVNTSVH

[9] = molecular target: T2, KDR (1-3) (UniProt P35968 20-327, limits assumed); assay: competition ELISA vs biotinylated native VEGF (8-109) for KDR (1-3)
T2 construct: domain: domains 1 to 3; Genentech reagent; also called KDR (1-3) monomer; domains 1 to 3 of KDR
T2 sequence (P35968 20-327 limits assumed): as the sequence (P35968 20-327 limits assumed) above
Experimental: as §1, with “containing 8” for “containing 2”, “of a monoclonal antibody” for “of rabbit F(ab')2”, “to KDR known as MAKD5 (Genentech, South San Francisco, Calif.)” for “to human IgG Fc (Jackson ImmunoResearch, West Grove, Pa.)”, “was” for “was then”
as §3, with “of this” for “of the”, “for 1 hour” for “for 2 hours”, “(0.2 gram/liter;” for “(0.2 g/liter,”
as §4

[10] = test system: corneal angiogenesis; assay: Corneal pocket angiogenesis assay; type: in vivo, Sprague-Dawley rats; conditions: rat, pellet with 200 ng growth factor, day 6, FIGS. 15A and 15B
Experimental: Assays were performed as described by Polyerini et al., Methods Enzymol., 198:440–450 (1991) with the following modifications. Sprague-Dawley rats were anesthetized using a gas (isoflurane)/injectable ketamine (80 mg/kg)/xylazine (15 mg/kg) combination. The eyes were gently proptosed and secured in place using nontraumatic forceps. With a #15 blade, a 1.5 mm incision was made slightly below the center of the cornea. Using a micro spatula (ST80017, ASSI), the incision was carefully blunt-dissected through the stroma toward the outer canthus of the eye. […] After surgery, the eyes were coated with gentamicin ointment. At day 6, the animals were injected with high molecular weight FITC-dextran and euthanized to allow for visualization of the vasculature. Corneal whole mounts were made of the enucleated eyes and measurements of the neovascular area completed using computer-assisted image analysis (Image-Pro Plus).

| Molecule | Endothelial Cell Proliferation Activity (HUVEC, 3H-thymidine) [4] | Relative Binding Affinity, KDR Receptor: ratio to native VEGF (8–109) [7] | Relative Binding Affinity, FLT-1 Receptor: ratio to native VEGF (8–109) [8] | relative binding affinity (ratio to native VEGF (8-109)) [5] | relative binding affinity (ratio to native VEGF (8-109)) [9] | further results |
| --- | --- | --- | --- | --- | --- | --- |
| O=c1cc(N2CCOCC2)oc2c(-c3ccccc3)cccc12 [LY 294002, reference compound] |  |  |  |  |  | inhibition of HUVEC cell migration [1]: 56% |
| Native VEGF 165: 165-amino acid native vascular endothelial cell growth factor [reference compound] |  |  |  |  |  | Kd ([2]; Table 6, read-out: Binding affinity, FLT-1 Receptor (RIA), value in parentheses): 37 pM; PLC-gamma phosphorylation [3]: able to stimulate PLC-gamma phosphorylation to a similar extent |
| Native VEGF (8–109): truncated native VEGF comprising amino acids 8 to 109 of the 165-amino acid vascular endothelial cell growth factor [reference compound] |  |  |  |  |  | Kd ([2]; Example 8, FIG. 8B, read-out: affinity for Flt-1 (RIA)): 400 pM |
| B1 | 0.5 nM |  |  |  |  | IC50 [5]: 420 pM; Phosphorylation-Inducing Activity (KIRA assay) [6]: 2 nM |
| B2 | 0.5 nM | 0.5 nM/0.5 | />21000 | > 21000 ratio | 0.5 ratio | Endothelial Cell Proliferation Activity (HUVEC, 3H-thymidine) (ratio to native VEGF (8-109)) [4]: 1; Relative Binding Affinity, FLT-1 Receptor: concentration at midpoint absorbance [8]: beyond the sensitivity of the ELISA assay |
| B3 | 1 ratio to native VEGF (8-109) | 1 nM/1 | />15000 | > 15000 ratio | 1 ratio | Relative Binding Affinity, FLT-1 Receptor: concentration at midpoint absorbance [8]: beyond the sensitivity of the ELISA assay |
| B4 |  |  |  | 400 ratio | 1 ratio | Phosphorylation-Inducing Activity (KIRA assay) [6]: 1 ratio to native VEGF (8-109) |
| B5 |  | 0.5 nM/0.5 | /300 | 300 ratio | 0.5 ratio |  |
| B6 |  |  |  |  |  | induction of corneal angiogenesis [10]: only a marginal response |
